Target: the molecule itself
Assay: AUC

B1: PrP-like ectodomain of mouse ZIP5 (Mm_ZIP5, residues 20-207), secreted from mammalian cells, deglycosylated (domain or fragment)
chain: WVGGSVPNLGPAEQEQNHYLAQLFGLYGENGTLTAGGLARLLHSLGLGRVQGLRLGHHEPPTGRAAPTSGDNFTHRLQEPELSVDIWAGMPLGPSGWGDQEESKAPDLHGSGPSSLDLFQRLLLLDHSLADHLNEDCLNGSQLLVNFGLSPVAPLTPRQFALLSPALLYQIDSRVCIKTPAPAPPGDV
notes: also called ZIP5 ectodomain; PrP-like ZIP5 ectodomain
stoichiometry N: ~2

From publication PMC3765157 (PLoS ONE, 2013)
